The target of experiment [1] is T1, mouse GPR12 (Mus musculus, UniProt P35412).
T1 construct: expressed in transfected cells
T1 sequence (P35412 1-334): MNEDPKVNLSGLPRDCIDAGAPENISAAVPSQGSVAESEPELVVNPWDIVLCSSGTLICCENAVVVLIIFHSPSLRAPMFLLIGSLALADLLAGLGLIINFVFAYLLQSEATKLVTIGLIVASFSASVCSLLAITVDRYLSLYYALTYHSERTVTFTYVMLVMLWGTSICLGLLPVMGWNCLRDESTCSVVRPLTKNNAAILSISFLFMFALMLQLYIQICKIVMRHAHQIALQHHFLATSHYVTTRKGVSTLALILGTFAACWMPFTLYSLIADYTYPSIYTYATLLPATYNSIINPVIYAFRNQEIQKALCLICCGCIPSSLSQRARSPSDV
As to the kind of experiment: cAMP production in CHO-K1-cell stable expression system (CHO-K1-GPR12). It counts as cell-based. The settings on record: CHO-K1-GPR12, peptide 10^-9 M, Forskolin 10^-5 M, 30 minutes. The procedure: The preparation of cells stably expressing GPR12 was conducted by a conventional method, and hereinafter described briefly. A vector (pcDNA3.1-GPR12) in which a gene (cDNA) encoding mouse GPR12 (SEQ ID NO: 8) was inserted at the downstream of a CMV promoter of pcDNA3.1 (TM) (Invitrogen Corporation) was prepared, 10 μg of the vector was mixed with 250 μL of medium OPTI-MEM™ (Invitrogen Corporation), and 10 μg of Lipofectamine™ 2000 Reagent (Invitrogen Corporation) was mixed with 250 μL of medium OPTI-MEM™, 5 minutes later both mixtures were mixed, and the resultant mixture was left over at room temperature for 20 minutes to prepare a transfection reagent. Chinese hamster ovary cells (CHO-K1) [ATCC Cat. No. CCl-61] plated onto a 6-well plate at 1.5×10^6 cells/well on the previous day in advance were washed with medium OPTI-MEM™ once, and the above-mentioned transfection reagent (vector and Lipofectamine™ 2000 Reagent) was added to the cells dropwise to perform transfection. The resultant transfected cells were incubated at 37° C. for 5 hours in a CO2 incubator, and then the medium was replaced by Ham's F12 medium. Further, the next day the medium was exchanged with Ham's F12 medium containing 100 μg/mL of Geneticin® (Invitrogen Corporation), and furthermore the next day the medium was exchanged with the same medium containing 200 μg/mL of Geneticin®, and the following day the medium was exchanged with the same medium containing 700 μg/mL of Geneticin®, and after that, culturing was continued under the conditions of 37° C. and 5% CO2 in a medium containing Geneticin® at the same concentration. […]
The measured intracellular cAMP level was evaluated in terms of a ratio (Fold) of each intracellular cAMP level with respect to the mean of the intracellular cAMP level in the (−) group that is set as unity, in which CHO-K1-GPR12 cells were cultured in the medium containing no peptide.
On the technique in general: Cyclic AMP is a second messenger, typically raised through Gs and lowered through Gi signalling.

In experiment [2] the target is T2, GPR12 (Mus musculus, UniProt P35412).
T2 construct: in which GPR12 was endogenously expressed; endogenous in cells; host or cells: NB41A3 cells (ATCC-CCL147), mouse brain neuroblastoma
T2 sequence (P35412 1-334): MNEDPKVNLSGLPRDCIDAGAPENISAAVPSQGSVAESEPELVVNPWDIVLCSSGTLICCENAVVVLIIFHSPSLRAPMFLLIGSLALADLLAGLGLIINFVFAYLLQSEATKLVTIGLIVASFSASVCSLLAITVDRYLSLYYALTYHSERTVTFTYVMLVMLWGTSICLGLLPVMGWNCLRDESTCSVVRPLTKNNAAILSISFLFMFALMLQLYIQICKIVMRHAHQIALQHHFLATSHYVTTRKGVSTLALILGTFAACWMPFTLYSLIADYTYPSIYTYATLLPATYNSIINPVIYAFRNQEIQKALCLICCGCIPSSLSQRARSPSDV
As to the kind of experiment: Expression of a CRE-reporter gene (pCRE-Luc luciferase) in NB41A3 cells expressing GPR12 endogenously. The conditions noted are these: NB41A3 cells transfected with pCRE-Luc, 10^-12 M to 10^-8 M, 16 hours. It is filed as cell-based. As to the method:
NB41A3 cells (ATCC-CCL147), a cell strain derived from mouse brain neuroblastoma, in which GPR12 was endogenously expressed were used. The confluent NB41A3 cells were recovered in a 10-cm dish, plated onto 10 cm-dishes after dividing the cell colony in four quarters, and cultured for one day in Ham's F12K medium. The cells were transected with 5 μg of the reporter plasmid pCRE-Luc (Stratagene Corporation, Catalog No. 219074) in which TATA-BOX and luciferase were incorporated into downstream of CRE by a calcium phosphate method. The cells were washed with Ham's F12K medium 16 hours after the transfection. Ham's F12K medium containing no test substance (Vehicle), Ham's F12K medium containing 10^−10 M of Nesfatin-1 M30 (Mid-Segment: SEQ ID NO: 11), Ham's F12K medium containing 10^−10 M of a modified peptide M30_Ag-A (SEQ ID NO: 50) (M30_Ag-A), and Ham's F12K medium containing 10^−10 M of a modified peptide M30_MSH-A (SEQ ID NO: 51) […] were added to the cells, and the resultant mediums were cultured under the conditions of 37° C. and 5% CO2 for 16 hours. After the culturing, the cells were washed twice with phosphate-buffered saline (PBS), lysed with 4 mL of lysis buffer (an aqueous solution containing 25 mM of glycylglicine (pH 7.8), 15 mM of magnesium sulfate, 4 mM of glycol ether diaminetetraacetic acid (EGTA), 1 mM of dithiothreitol (DTT), and 1% (volume/volume) of Triton X-100). […] After adding 200 μL of 0.2 mM of d-luciferin to the diluted cell lysate, the luminescence was measured for 10 seconds by a luminometer, and the amount of luminescence (units) was determined. Further, the amount of protein in each cell lysate was measured by BCA™ Protein Assay Kit-Reducing Agent Compatible (Pearce, Catalog No. 23250), and the value obtained by dividing the amount of luminescence (units) by the amount of protein (μg) in a sample was determined as a luciferase activity. […] The cells were cultured for 16 hours, and then the level of luciferase activity was also determined.

Experiment [3] can be described thus: Amount of food intake in a mouse after intraperitoneal administration. It counts as in vivo. The settings on record: C57BL/6J male mouse, 0.25 nmol per gram of body weight, 0 to 3 hours. The procedure: A 7-week-old C57BL/6J strain male mouse (CLEA Japan, Inc.) was used as an experimental animal. After purchasing the mouse, the mouse was raised at 22° C. in cycles of the 12-hour light period from 6 a.m. to 6 p.m. and the 12-hour dark period from 6 p.m. to 6 a.m. on the next morning with free access to pelleted feed (CLEA Japan, Inc., CE-2).
A 5 nmol aliquot of Nesfatin-1M30 (Mid-segment, SEQ ID NO: 11), M30_Ag-A (SEQ ID NO: 50), or M30_MSH-A (SEQ ID NO: 51) was dissolved in each 100 μL of saline, and each of the resultant solutions was administered intraperitoneally to a C57BL/6J mouse at a dose of 0.25 nmol per gram of body weight of the mouse. In the control group, only saline (Vehicle) was administered. Each mouse (5 mice in each group) was intraperitoneally given a single injection of a sample using a tuberculin syringe with 26 G needle, immediately before the dark period (6 p.m.).
Each mouse administered was placed in an individual cage, and the amount of food intake was determined by measuring the decreased amount of the pelleted feed during the period from 0 to 3 hours after the administration of a test substance. In the mouse administered with each test sample, the amount of food intake during 3 hours after the administration (g/3 h) is shown in FIG. 6.

For experiment [4], the target named is T3, mGPR12 (Mus musculus, UniProt P35412).
T3 sequence (P35412 1-334): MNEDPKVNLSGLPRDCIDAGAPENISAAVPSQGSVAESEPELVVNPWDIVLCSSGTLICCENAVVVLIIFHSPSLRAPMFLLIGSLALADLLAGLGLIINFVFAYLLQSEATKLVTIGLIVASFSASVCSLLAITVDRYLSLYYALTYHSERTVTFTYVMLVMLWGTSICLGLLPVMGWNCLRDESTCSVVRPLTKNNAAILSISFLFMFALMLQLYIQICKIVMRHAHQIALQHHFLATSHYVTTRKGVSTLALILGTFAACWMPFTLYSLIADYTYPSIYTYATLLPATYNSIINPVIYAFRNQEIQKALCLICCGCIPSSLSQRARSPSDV
As to the kind of experiment: cAMP production in HeLa-cell transient expression system. It counts as cell-based. On the set-up: expressed in transfected cells; host or cells: HeLa cells (transient, lipofection). The settings on record: mGPR12-transiently expressing HeLa cells, ligand 10^-6 M. The procedure:
A GPCR expression vector prepared in Example 4 was introduced into HeLa cells by lipofection and transiently expressed.
HeLa cells were peeled off using trypsin EDTA and recovered, and plated onto a 6-well plate with 7×10^5 cells/2 mL/well to perform overnight culture using a CO2 incubator. The next day, a plasmid solution was prepared by adding 4 μg of plasmid into 250 μL of a serum-free Opti-MEM medium. On the other hand, a Lipofectamine 2000 solution was prepared by adding 10 μL of Lipofectamine 2000 (Invitrogen Corporation) into 250 μL of the serum-free Opti-MEM medium. These solutions were incubated at room temperature for 5 minutes, and the Lipofectamine 2000 solution was added bit by bit into the plasmid solution. The resultant mixture was incubated at room temperature for 20 minutes to prepare a solution for lipofection. […]
The 5× Ligand solution was added at 20 μL/well so that the final concentration may become 10^−6 M, and the plate was incubated in a CO2 incubator for 30 minutes. […] Further, in order to lyse the cells completely, the cells were frozen once at −20° C. and lysed again, and then the intracellular cAMP concentration was measured using cAMP-Screen System (Applied Biosystems, T1500).

On to “M30_MSH-A: human Nesfatin-1M30 with the 22nd to 25th residues from the N-terminus substituted with alanine, SEQ ID NO: 51 (PDTGLYYDEYLKQVIDVLETDAAAAEKLQK; Synthetic M30_MSH-A peptide)”, for which, in experiment [1], the “intracellular cAMP level compared with the group (-) cultured in medium containing no peptide” value was “about 10 fold”. Moreover, the “concentration-dependent enhancement of the luciferase activity” value in experiment [2] is “observed”. In addition, the “amount of food intake during 3 hours after the administration compared with control group (Vehicle)” value in experiment [3] was “significant decrease of the food intake”.

In the case of “M30_Ag-A: human Nesfatin-1M30 with the 11th (Leu) and 13th to 17th residues from the N-terminus substituted with alanine, SEQ ID NO: 50 (PDTGLYYDEYAKAAAAALETDKHFREKLQK; Synthetic M30_Ag-A peptide)”, the “intracellular cAMP level compared with the group (-) cultured in medium containing no peptide” value in experiment [1] is “hardly elevated”. The “concentration-dependent enhancement of the luciferase activity” value in experiment [2] is “not found”. In experiment [3], the “amount of food intake during 3 hours after the administration compared with control group (Vehicle)” value is “no difference”.

B1: mouse Nesfatin-1: recombinant mouse Nesfatin-1 (82 amino acids) expressed in Escherichia coli as a GST-His fusion protein and cleaved by thrombin (protein)
chain: VPIDVDKTKVHNTEPVENARIEPPDTGLYYDEYLKQVIEVLETDPHFREKLQKADIEEIRSGRLSQELDLVSHKVRTRLDEL
For B1, the cAMP production result in experiment [4] (with Forskolin addition (2 μM)) and in experiment [4] (without Forskolin addition) was “increase in cAMP production was confirmed” in each case.

The record behind these values is patent US8221990B2, “Screening GPR12 receptor for substances having Nesfatin-1-like action, or which regulate Nesfatin-1 action” (Teijin Pharma Limited, priority 2007, dated 2012).
